In US20200157217A1 (SYSTIMMUNE, published 2020):
Read-outs that look alike come from different tables or passages of the source.

What was measured:
Cyno T cell line = assay: FACS, B cell culture supernatant on the cynomolgus T cell line (HSC-F per paragraph 87)
[1] = biological target: T1, human CD3 Gamma/Epsilon Fc fusion protein (human, UniProt P09693 23-116; P07766 23-126); assay: Octet (bio-layer interferometry), bivalent kdis; antigen printed 'Epsilon-Gamma', taken as the human Gamma/Epsilon Fc that paragraph 95 names for FIG. 8
T1 construct: Construct limits and Fc are not described; also called Gamma-Epsilon Fc (KnH)

[2] = biological target: T2, human CD3 (Delta, Gamma, Epsilon) on the human T cell line Jurkat or on purified human CD3+ T cells (human, UniProt P07766 23-207; P09693 23-182; P04234 22-171); assay: FACS, antibody titration on Jurkat cells
T2 construct: whole, on cells; On cells CD3 sits in the TCR complex

[3] = biological target: T3, human CD3 Delta/Epsilon Fc fusion protein (human, UniProt P04234 22-105; P07766 23-126); assay: Octet (bio-layer interferometry), bivalent kdis
T3 construct: Construct limits and Fc are not described; also called Human CD3 Delta-Epsilon Fc ("Knobs-into-hole"-KnH)

[4] = biological target: T1, human CD3 Gamma/Epsilon Fc fusion …; assay: Octet (bio-layer interferometry), bivalent kdis; antigen printed 'Human δ/γ - Fc', taken as the Gamma/Epsilon Fc that paragraph 95 names for FIG. 8
[5] = biological target: T2, human CD3 (Delta, Gamma, Epsilon) on …; assay: FACS, antibody titration on Jurkat cells; remark: listed apart in the source

T1 sequence (P09693 23-116, chain 1 of 2): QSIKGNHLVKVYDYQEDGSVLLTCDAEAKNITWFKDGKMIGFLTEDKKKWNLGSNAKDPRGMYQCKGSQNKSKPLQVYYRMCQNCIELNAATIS
T1 sequence (P07766 23-126, chain 2 of 2): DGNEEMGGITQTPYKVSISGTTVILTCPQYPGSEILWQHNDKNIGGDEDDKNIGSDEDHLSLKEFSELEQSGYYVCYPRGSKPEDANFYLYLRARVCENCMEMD
T3 sequence (P04234 22-105, stated change not applied, chain 1 of 2): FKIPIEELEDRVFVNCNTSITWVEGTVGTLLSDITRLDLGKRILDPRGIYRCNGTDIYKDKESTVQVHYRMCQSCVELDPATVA
T3 sequence (P07766 23-126, stated change not applied, chain 2 of 2): as the sequence (P07766 23-126, chain 2 of 2) above
T2 sequence (P07766 23-207, stated change not applied, chain 1 of 3): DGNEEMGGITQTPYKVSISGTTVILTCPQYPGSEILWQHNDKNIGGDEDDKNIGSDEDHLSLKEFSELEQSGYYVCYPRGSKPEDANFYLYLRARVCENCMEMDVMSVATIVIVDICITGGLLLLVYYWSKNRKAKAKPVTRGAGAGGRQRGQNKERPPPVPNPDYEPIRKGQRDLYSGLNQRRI
T2 sequence (P09693 23-182, stated change not applied, chain 2 of 3): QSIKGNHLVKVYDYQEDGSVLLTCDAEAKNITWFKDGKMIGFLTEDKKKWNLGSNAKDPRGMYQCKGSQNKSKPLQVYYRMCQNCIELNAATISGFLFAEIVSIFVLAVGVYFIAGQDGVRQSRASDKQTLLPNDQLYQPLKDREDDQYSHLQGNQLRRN
T2 sequence (P04234 22-171, stated change not applied, chain 3 of 3): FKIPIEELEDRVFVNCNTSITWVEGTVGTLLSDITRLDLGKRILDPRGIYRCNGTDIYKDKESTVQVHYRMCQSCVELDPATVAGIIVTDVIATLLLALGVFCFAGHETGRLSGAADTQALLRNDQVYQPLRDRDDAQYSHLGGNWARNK

B1: 284A10 (antibody, V domains shown)
VH: QSLEESGGRLVTPGTPLTLTCTVSGFTISTNAMSWVRQVPGKGLEWIGVITGRDITYYASWAKGRFTISKTSSTTVDLKMTSLTAEDSATYFCARDGGSSAITSNNIWGPGTLVTVSS
VL: DVVMTQTPPSVSAAVGGTVTIKCQASESISSWLAWYQQKPGQPPKLLIYEASKLASGVPSRFSGSGSGTEFTLTISDLECADAATYYCQGYFYFISRTYVNSFGGGTEVEFK
MFI (Cyno T cell line): 615 MFI

B2: 295E9 (antibody, V domains shown)
VH: QSLEESGGRLVTPGTPLTLTCTVSGIDLSSNAMSWVRQAPGKGLEWIGVITGRDINYYASWAKGRFTISKTSSTTVDLKMTSLTAEDSATYFCARDGGSSAITSKNIWGPGTLVTVSS
VL: DVVMTQTPASVEAAVGGTVTINCQASESISSWLAWYQQRPGQPPKLLIYEASKLASGVPSRFKGSGSGTEFTLTISDLECADAATYYCQGYFYFISRSYVNAFGGGTEVVVK
MFI (Cyno T cell line): 549 MFI

B3: 480A7 chimeric rabbit/human IgG antibody (antibody, V domains shown)
VH: QSLEESGGRLVTPGTPLTLTCTVSGIDLSSNAMSWVRQAPGKGLEWIGVITGRDITYYASWAKGRFTISKTSSTTVDLKMTSLTAEDSATYFCARDGGSSAITSKNIWGPGTLVTVSS
VL: DVVMTQTPASVEAAVGGTVTINCQASESISSWLAWYQQRPGQPPKLLIYEASKLASGVPSRFSGSGSGTEFTLTISDLECADAATYYCQGYFYFISRSYVNAFGGGTEVVFKR
koff [1]: 0.0006 s⁻¹
binding result [2]: binds
koff [3]: 0.00066 s⁻¹

B4: 295E9 chimeric rabbit/human IgG antibody (antibody, V domains shown)
VH: QSLEESGGRLVTPGTPLTLTCTVSGIDLSSNAMSWVRQAPGKGLEWIGVITGRDINYYASWAKGRFTISKTSSTTVDLKMTSLTAEDSATYFCARDGGSSAITSKNIWGPGTLVTVSS
VL: DVVMTQTPASVEAAVGGTVTINCQASESISSWLAWYQQRPGQPPKLLIYEASKLASGVPSRFKGSGSGTEFTLTISDLECADAATYYCQGYFYFISRSYVNAFGGGTEVVVKR
koff [3]: 0.0052 s⁻¹
koff [4]: 0.0052 s⁻¹

B5: 480C8 chimeric rabbit/human IgG antibody (antibody, V domains shown)
VH: QSLEESGGRLVTPGTPLTLTCTVSGIDLSSNAMSWVRQAPGKGLEWIGVITGRDITYYASWAKGRFTISKTSSTTVDLKMTSLTAEDSATYFCARDGGSSAINSKNIWGQGTLVTVSS
VL: DVVMTQTPSSVSAAVGGTVTINCQASESISSWLAWYQQKPGQPPKLLIYEASKLASGVPSRFSGSGSGTEFTLTISDLECADAATYYCQGYFYFISRTYVNAFGGGTEVEFKR
notes: also called 48008
binding result [5]: binds
koff [3]: 0.00042 s⁻¹
koff [4]: 0.00054 s⁻¹

B6: 299F6 chimeric rabbit/human IgG antibody (antibody, V domains shown)
VH: QSLEESGGRLVTPGTPLTLTCTVSGFTISSNAMSWVRQAPGKGLEWIGVITGRDITYYANWAKGRFTISKTSSTTVDLKMTSLTAEDSATYFCARDGGSSAITSNNIWGPGTLVTVSS
VL: DVVMTQTPSSVSAAVGGTVTINCQASESISSWLAWYQQKPGQPPKLLIYEASKLASGVPSRFSGSGSGTEFTLTISDLECADAATYYCQGYFYFISRSYVNAFGGGTEVVFKR
koff [3]: 0.00049 s⁻¹
koff [4]: 0.00045 s⁻¹

B7: 284A10 chimeric rabbit/human IgG antibody (antibody, V domains shown)
VH: QSLEESGGRLVTPGTPLTLTCTVSGFTISTNAMSWVRQVPGKGLEWIGVITGRDITYYASWAKGRFTISKTSSTTVDLKMTSLTAEDSATYFCARDGGSSAITSNNIWGPGTLVTVSS
VL: DVVMTQTPPSVSAAVGGTVTIKCQASESISSWLAWYQQKPGQPPKLLIYEASKLASGVPSRFSGSGSGTEFTLTISDLECADAATYYCQGYFYFISRTYVNSFGGGTEVEFKR
koff [3]: 0.0005 s⁻¹
koff [4]: 0.0013 s⁻¹

B8: 299F6 1.1 (antibody, human IgG1, kappa, V domains shown)
VH: EVQLVESGGGLVQPGGSLRLSCAASGFTISSNAMSWVRQAPGKGLEWIGVITGRDITYYANWAKGRFTISRDNSKNTLYLQMNSLRAEDTAVYYCARDGGSSAITSNNIWGQGTLVTVSS
VL: DIQMTQSPSTLSASVGDRVTITCQASESISSWLAWYQQKPGKAPKLLIYEASKLASGVPSRFSGSGSGTEFTLTISSLQPDDFATYYCQGYFYFISRSYVNAFGGGTKVEIKR
notes: sheet: mAb '299F6 1.1', format 'humanized'; also called 299F6 humanized
koff [3]: 0.0006 s⁻¹

B9: 284A10 1.1 (antibody, human IgG1, kappa, V domains shown)
VH: EVQLVESGGGLVQPGGSLRLSCAASGFTISTNAMSWVRQAPGKGLEWIGVITGRDITYYASWAKGRFTISRDNSKNTLYLQMNSLRAEDTAVYYCARDGGSSAITSNNIWGQGTLVTVSS
VL: DVVMTQSPSTLSASVGDRVTINCQASESISSWLAWYQQKPGKAPKLLIYEASKLASGVPSRFSGSGSGTEFTLTISSLQPDDFATYYCQGYFYFISRTYVNSFGGGTKVEIKR
notes: sheet: mAb '284A10 1.1', format 'humanized'; also called 284A10 humanized
koff [3]: 0.00053 s⁻¹

B10: 480C8 1.1 (antibody, human IgG1, kappa, V domains shown)
VH: EVQLVESGGGLVQPGGSLRLSCAASGIDLSSNAMSWVRQAPGKGLEWIGVITGRDITYYASWAKGRFTISRDNSKNTLYLQMNSLRAEDTAVYYCARDGGSSAINSKNIWGQGTLVTVSS
VL: DIQMTQSPSTLSASVGDRVTITCQASESISSWLAWYQQKPGKAPKLLIYEASKLASGVPSRFSGSGSGTEFTLTISSLQPDDFATYYCQGYFYFISRTYVNAFGGGTKVEIKR
notes: sheet: mAb '480C8 1.1', format 'humanized'; also called 480C8 humanized
koff [3]: 0.0005 s⁻¹
